Source: patent US20030232009A1 (Amgen, published 2003)

How the values were obtained:
[1] = target: T1, chimeric CD45RB (full length human CD45RB with the macaque RB exon) transiently expressed in CHO cells (human; macaque, UniProt P08575-9 26-33; P08575-9 81-1192); assay: transiently transfected CHO cells
T1 construct: whole chimeric protein on CHO cells; also called Macaque CD45RB CHO
T1 sequence: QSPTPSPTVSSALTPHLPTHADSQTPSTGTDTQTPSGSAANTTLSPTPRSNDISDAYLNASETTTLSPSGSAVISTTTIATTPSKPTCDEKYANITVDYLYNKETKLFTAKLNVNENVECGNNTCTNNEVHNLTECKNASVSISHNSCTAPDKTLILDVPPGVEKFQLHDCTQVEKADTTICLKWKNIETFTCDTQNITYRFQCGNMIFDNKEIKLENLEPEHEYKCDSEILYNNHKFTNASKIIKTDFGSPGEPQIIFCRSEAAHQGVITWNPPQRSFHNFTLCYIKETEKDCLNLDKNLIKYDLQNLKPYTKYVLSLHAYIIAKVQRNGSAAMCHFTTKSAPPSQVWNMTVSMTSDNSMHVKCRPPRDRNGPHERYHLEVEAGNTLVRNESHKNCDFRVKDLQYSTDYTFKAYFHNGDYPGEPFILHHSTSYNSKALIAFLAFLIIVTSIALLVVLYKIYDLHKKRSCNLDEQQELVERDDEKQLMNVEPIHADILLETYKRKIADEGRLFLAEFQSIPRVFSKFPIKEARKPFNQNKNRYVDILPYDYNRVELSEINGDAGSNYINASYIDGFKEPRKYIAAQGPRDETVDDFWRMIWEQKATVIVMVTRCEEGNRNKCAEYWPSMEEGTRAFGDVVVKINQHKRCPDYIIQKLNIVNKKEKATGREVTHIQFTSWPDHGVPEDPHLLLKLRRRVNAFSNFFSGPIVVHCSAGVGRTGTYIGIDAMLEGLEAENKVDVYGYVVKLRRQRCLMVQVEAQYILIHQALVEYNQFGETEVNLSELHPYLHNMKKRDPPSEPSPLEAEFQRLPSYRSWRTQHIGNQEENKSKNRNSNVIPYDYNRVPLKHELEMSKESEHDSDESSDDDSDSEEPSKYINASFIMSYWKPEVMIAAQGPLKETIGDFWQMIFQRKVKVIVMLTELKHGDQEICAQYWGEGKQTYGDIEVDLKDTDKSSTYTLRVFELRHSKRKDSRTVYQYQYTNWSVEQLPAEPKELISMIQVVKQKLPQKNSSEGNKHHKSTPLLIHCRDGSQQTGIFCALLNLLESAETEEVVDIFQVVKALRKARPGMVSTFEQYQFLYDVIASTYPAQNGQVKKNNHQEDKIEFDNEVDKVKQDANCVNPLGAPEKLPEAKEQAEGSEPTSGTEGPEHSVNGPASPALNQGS

[2] = target: T2, Human 20.2 peptide (human); assay: recombinant antibody on peptide
T2 construct: synthetic peptide from the RB exon
T2 peptide: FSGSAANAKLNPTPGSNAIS

[3] = target: T3, Human 46 mer peptide (RB exon of human CD45) (human); assay: recombinant antibody on peptide
T3 construct: synthetic peptide; also called CD45RB 46 mer
T3 peptide: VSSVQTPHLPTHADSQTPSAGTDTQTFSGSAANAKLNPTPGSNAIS

[4] = target: T4, Macaque 46 mer peptide (RB exon of macaque CD45RB) (macaque); assay: recombinant antibody on peptide
T4 construct: synthetic peptide
T4 peptide: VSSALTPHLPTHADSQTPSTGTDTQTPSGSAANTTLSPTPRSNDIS

[5] = target: T5, Human 18 mer peptide (human); assay: recombinant antibody on peptide
T5 construct: synthetic peptide from the RB exon
T5 peptide: VSSVQTPHLPTHADSQTPC

[6] = target: T6, Human 20.1 peptide (human); assay: recombinant antibody on peptide
T6 construct: synthetic peptide from the RB exon
T6 peptide: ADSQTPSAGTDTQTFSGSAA

Measured: binding result

B1: AB-CD45RB-XG2-556 (antibody, human IgG2, V domains shown)
VH: QVQLQESGPGLVKPSETLSLTCTVSGGSISGYYWSWIRQPAGKGLEWIGRIHTTGKTAYNPSLKSRVIMSVDTSKNLFSLKLTSVTAADTAVYYCARDYDFLTGYFDYWGQGTLVTVSS
VL: DVVMTQSPLSLPVTLGQPASISCRSSQSLVYSDGNTYLNWFQQRPGHSPRRLIYKVSNWDSGVPDRFSGSGSGTDFTLKISRVEAEDVGIYYCMQGTHWPPTFGQGTRVEIK
notes: recombinant human IgG2 kappa; also called sc556
no binding: [1] | [2] | [3] | [4]

B2: AB-CD45RB-XG2-636 (antibody, human IgG2, V domains shown)
VH: QVHLVESGGGLVKPGGSLRLSCAASGFTFINYYMTWIRQAPGKGLEWVSYISLSGSTIYYADSVKGRFTISRDNAKNSLFLQMNSLRAEDTAVYYCARRAATVTTFDYWGQGTLVTVSS
VL: EIVMTQSPATLSVSPGERATLSCRASQSVRSNLAWSQQKPGQAPRLLIYGASTRATGIPARFSGSGSGTEFTLTISSLQSEDFAVYYCQQYNNWPLTFGGGTKVEIK
notes: recombinant human IgG2 kappa; also called sc636
not listed: [1]
no binding: all other assays above

B3: AB-CD45RB-XG2-662 (antibody, human IgG2, V domains shown)
VH: QVQLVESGGDLVKPGGSLRLSCAASGFSFSGYYLSWIRQAPGKGLEWVSYISLSGSFIKYADSVKGRFTISRDNAKKTLHLQMNSLRAEDTAVYYCARRTGTTTVFDYWGQGTLVTVSS
VL: EVVMTQSPATLSVSPGERATLSCRASQSVNSNLAWYQQRPGQAPRLLIYGASTRVTGIPARFSGSGSGTEFTLTISSLQSEDFAVYYCQQYNNWPLTFGGGTKVEIK
notes: recombinant human IgG2 kappa; also called sc662
not listed: [1]
no binding: all other assays above

B4: AB-CD45RB-XG2-525 (antibody, human IgG2, V domains shown)
VH: QVQLVESGGGVVQPGRSLRVSCAASGFTFSNYGMHWVRQAPGKGLEWVAVIWYDGSKKFYADSVKGRFTISRDNSQNTLSLQMSSLRAEDTAVYYCARGGGDFDFWGQGTLVTVSS
VL: KIVMTQSPATLSVSPGERATLSCRASQSLSGSYLAWYQQRPGQAPRLLIYGASTRATGIPARFSGSGSGTEFTLTISSLQSEDFAVYYCQQYNKWPPLTFGGGTKVEIK
notes: recombinant human IgG2 kappa; also called sc525
not listed: [3]
no binding: all other assays above

B5: AB-CD45RB-XG2-606 (antibody, human IgG2, V domains shown)
VH: QVQLAESGGGVVQPGRSLRLSCAASGFTFSNYGMHWVRQAPGKGLEWVAIIWYDGSKKFYADSVKGRFTISRDNSNNTLYLHVNSLRVEDTAVYYCARGGGDIDFWGQGTLVTVSS
VL: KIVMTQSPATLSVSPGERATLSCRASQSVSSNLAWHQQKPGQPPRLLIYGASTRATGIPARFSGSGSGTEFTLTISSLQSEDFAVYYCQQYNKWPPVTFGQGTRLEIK
notes: recombinant human IgG2 kappa; also called sc606
not listed: [3]
no binding: all other assays above

B6: AB-CD45RB-XG2-439 (antibody, human IgG2, V domains shown)
VH: QVQLVESGGGVVQPGRSLRLSCAASGFTFSNYGMHWVRQAPGKGLEWVAVIWYDGSKKFYADSVKGRFTISRDNSKNMQYLQMDSLRAEDTAVYYCARGGGDFDYWGQGILVTVSS
VL: EIVMTQSPATLSVSPGERATLSCRASQNLSGKYLAWYQQKPGQAPSRLIYGTSTRATGVPARFSGSGSGTEFTLTISSLQSEDSAVYYCQQYNNWPPLTFGGGTKVEIK
notes: recombinant human IgG2 kappa; also called sc439
not listed: [3]
no binding: all other assays above

B7: AB-CD45RB-XG2-446 (antibody, human IgG2, V domains shown)
VH: QVQLVESGGGVVQPGKSLRLSCAASGFTFRNYGMHWVRQAPGKGLEWVAVIWYDGSKKFYADSVKGRFTISRDNSKNTLNLQMNSLRAEDTAVYYCVRGGGDFDYWGQGTLVTVSS
VL: EIVMTQSPATLSVSLGERATLSCRASQNISGNYLAWYQQRPGQAPRRLIYSASSRATGIPDRFSGSGSGTEFTLTISSLQSEDFAVYYCQQYNNWPPLTFGGGTKVEMK
notes: recombinant human IgG2 kappa; also called sc446
not listed: [3]
no binding: all other assays above

B8: AB-CD45RB-XG2-593 (antibody, human IgG2, V domains shown)
VH: QVQLVESGGGVVQPGRSLRVSCAASGFTFSNYGMHWVRQAPGKGLEWVAVIWYDGSKKFYADSVKGRFTISRDNSQNTLSLQMSSLRAEDTAVYYCARGGGDFDFWGQGTLVTVSS
VL: KIVMTQSPATLSVSPGERATLSCRASQSVSGNYLAWYQQRPGQAPRLLIYGASTRATGIPARFSGSGSGTEFTLTISSLQSEDFAVYYCQQYGKWPPLTFGGGTKVEIK
notes: recombinant human IgG2 kappa; also called sc593
not listed: [3]
no binding: all other assays above

B9: AB-CD45RB-XG2-026 (antibody, human IgG2, V domains shown)
VH: QVQLVESGGGVVQPGRSLRLSCAASGFTFSNYGMHWVRQAPGKGLEWVAVIWYDGSNKYYADSVKGRFTISRDNSKNTLYLQMNSLRAEDTAVYYCARGGGDFDYWGQGTLVTVSS
VL: EIVMTQSPATLSVSPGERVTLSCRASQTISGSYLAWYQQKPGQAPRLLIYGAFTRATGIPARFSGSGSGTEFTLTISSLQSEDFAVYYCQQYNNWPPLTFGGGTRVEIK
notes: recombinant human IgG2 kappa; also called sc026; 1G10 (sc026)
not listed: [3]
no binding: all other assays above

B10: AB-CD45RB-XG2-713 (antibody, human IgG2, V domains shown)
VH: QVQLVESGGGVVQPGRSLRLSCAASGFTFSNYGMHWVRQAPGKGLEWVAVIWYDGSKKFYADSVKGRFTISRDNFEKTLYLQMNSLRAEDTAVYYCARGGGDFDYWGQGTLVTVSS
VL: EIVMTQSPATLSVSPGERATLSCRASQSLSGSYLAWYQQKPGQAPRLLIYSASTRATGIPARFSGSGSGTEFTLTISSLQSEDFAVYYCQQYNNWPPLTFGGGTKVEIK
notes: recombinant human IgG2 kappa; also called sc713
not listed: [3]
no binding: all other assays above

B11: AB-CD45RB-XG2-502 (antibody, human IgG2, V domains shown)
VH: QVQLVESGGGVVQPGRSLRVSCAASGFTFSNYGMHWVRQAPDKGLEWVAVIWYDGSKKFYADSVKGRFTISRDNSQNTLSLQMSSLRAEDTAVYYCARGGGDFDFWGQGTLVTVSS
VL: KIVMTQSPATLSVSPGERATLSCRASQSVSGNYLAWYQRRPGQAPRLLIYGASTRATGIPARFSGSGSGTEFTLTISSLQSEDFAVYYCQQYGKWPPLTFGGGTKVEIK
notes: recombinant human IgG2 kappa; also called sc502
no binding: [1] | [2] | [5]

B12: AB-CD45RB-XG2-493 (antibody, human IgG2, V domains shown)
VH: QVQLVESGGGVVQPGRSLRVSCAASGFTFSNYGMHWVRQAPGKGLEWVAVIWYDGSKKFYADSVKGRFTISRDNSQNTLSLQMSSLRAEDTAVYYCARGGGDFDFWGQGTLVTVSS
VL: KIVMTQSPVTLSVSPGERATLSCRACQSVSGSYLAWYQQRPGQAPRLLIYGASTRATGIPARFSGSGSGTEFTLTISSLQSEDFAVYYCQQYGKWPPLTFGGGTKVEIK
notes: recombinant human IgG2 kappa; also called sc493
not listed: [3]
no binding: all other assays above

B13: AB-CD45RB-XG2-487 (antibody, human IgG2, V domains shown)
VH: QVQLVESGGGVVQPGRSLRVSCEASGFTFSNYGMHWVRQAPGKGLEWVAVIWYDGSKKFYADSVKGRFTISRDNSQNTLSLQMSSLRAEDTAVYYCARGGGDFDFWGQGTLVTVSS
VL: KIVMTQSPATLSVSPGERATLSCRASQSVSGNYLAWYQQRPGQAPRLLIYGASTRATGIPARFSGSGSGTEFTLTISSLQSEDFAVYYCQQYGKWPPLTFGGGTKVEIK
notes: recombinant human IgG2 kappa; also called sc487
not listed: [3]
no binding: all other assays above
